Source: patent publication US20180187179
Substitutions are numbered along the chain they refer to. Numbers in names are those of the source.

T1: β-casein, P02666
T1 chain: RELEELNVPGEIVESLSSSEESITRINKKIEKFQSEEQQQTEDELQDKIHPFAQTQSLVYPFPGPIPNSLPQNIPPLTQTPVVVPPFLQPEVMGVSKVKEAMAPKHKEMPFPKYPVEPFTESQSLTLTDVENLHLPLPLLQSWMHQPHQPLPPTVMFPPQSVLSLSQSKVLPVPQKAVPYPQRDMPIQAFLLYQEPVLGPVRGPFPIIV

B1: camel chymosin variant 283 (F282E+N100Q+N291Q) (protein)
chain: GKVAREPLTSYLDSQYFGKIYIGTPPQEFTVVFDTGSSDLWVPSIYCKSNVCKNHHRFDPRKSSTFRNLGKPLSIHYGTGSMEGFLGYDTVTVSNIVDPQQTVGLSTEQPGEVFTYSEFDGILGLAYPSLASEYSVPVFDNMMDRHLVARDLFSVYMDRNGQGSMLTLGAIDPSYYTGSLHWVPVTLQQYWQFTVDSVTINGVAVACVGGCQAILDTGTSVLFGPSSDILKIQMAIGATENRYGEFDVNCGNLRSMPTVVFEINGRDYPLSPSAYTSKDQGECTSGFQGDQNSELWILGDVFIREYYSVFDRANNRVGLAKAI
B2: camel chymosin variant 285 (R254S+N100Q+N291Q) (protein)
chain: B1 chain with R254S, E282F
B3: camel chymosin variant 286 (R242E+N100Q+N291Q) (protein)
chain: B1 chain with R242E, E282F

Biological target: T1, β-casein, P02666
Conditions: scale: % cleavage of non-glycosylated camel chymosin

| Protein | β(193-209): cleavage of β-casein at position 192/193 |
| --- | --- |
| B1 | 79 |
| B2 | 78 |
| B3 | 89 |
